Test results as given in patent US20240075096A1, “ANTIMICROBIAL PEPTIDE LIQUID COMPOSITION AND FORMULATION THEREOF” (priority 2021, published 2024).
Converted amounts (≈) assume the structure as drawn.

Columns and labels:
[1] = test system: Methicillin-sensitive Staphylococcus aureus (MSSA) clinical isolates; assay: In vitro bacteriostatic and bactericidal tests (MIC, MBC); type: cell-based; conditions: MSSA clinical strains
[2] = test system: Methicillin-resistant coagulase-negative Staphylococcus (MRSCNS) clinical isolates; assay: as above; type: cell-based; conditions: MRSCNS clinical strains
[3] = test system: Methicillin-sensitive coagulase-negative Staphylococcus (MSSCNS) clinical isolates; assay: as above; type: cell-based; conditions: MSSCNS clinical strains
[4] = test system: Staphylococcus aureus ATCC29213; assay: as above; type: cell-based; conditions: standard strain ATCC29213
[5] = test system: methicillin-resistant Staphylococcus aureus (MRSA) clinical isolates; assay: as above; type: cell-based; conditions: MRSA clinical strains
[6] = Stability investigation of antimicrobial peptide compositions (trait, related substances and content by HPLC); type: physicochemical
[7] = 4° C., 0 days, peptide 2‰, stabilizer 1% (Table 2)
[8] = 4° C., 6 months, peptide 2‰, stabilizer 1% (Table 2)
[9] = 4° C., 12 months, peptide 2‰, stabilizer 1% (Table 2)
[10] = 4° C., 24 months, peptide 2‰, stabilizer 1% (Table 2)
[11] = 4° C., 36 months, peptide 2‰, stabilizer 1% (Table 2)
[12] = 25° C., 0 days, different mannitol systems (Table 3)
[13] = 25° C., 0 days, peptide 2‰, stabilizer 1% (Table 1)
[14] = 25° C., 1 month, peptide 2‰, stabilizer 1% (Table 1)
[15] = 25° C., 3 months, different mannitol systems (Table 3)
[16] = 25° C., 3 months, peptide 2‰, stabilizer 1% (Table 1)
[17] = 25° C., 6 months, different mannitol systems (Table 3)
[18] = 25° C., 6 months, peptide 2‰, stabilizer 1% (Table 1)

CN[C@H](CC(C)C)C(=O)N[C@H]1C(=O)N[C@@H](CC(N)=O)C(=O)N[C@H]2C(=O)N[C@H]3C(=O)N[C@H](C(=O)N[C@H](C(=O)O)c4cc(O)cc(O)c4-c4cc3ccc4O)[C@H](O)c3ccc(c(Cl)c3)Oc3cc2cc(c3O[C@@H]2O[C@H](CO)[C@@H](O)[C@H](O)[C@H]2O[C@H]2C[C@](C)(N)[C@H](O)[C@H](C)O2)Oc2ccc(cc2Cl)[C@H]1O [Vancomycin, vancomycin]
MIC Concentration Range [1]: 0.5 to 4 µg/mL | MIC Concentration Range [2]: 0.5 to 4 µg/mL | MIC Concentration Range [3]: 0.5 to 4 µg/mL | MBC Concentration Range [4]: 4 µg/mL (≈ 2.76 µM) | MIC Concentration Range [4]: 1 µg/mL (≈ 0.69 µM) | MIC Concentration Range [5]: 0.5 to 4 µg/mL

KWKSFLKTFKSAAKTVLHTALKAISS [antimicrobial peptide, tested alone as aqueous solution without stabilizer]
Content [6, 7]: 99.87% | Largest Single Impurity (Related Substance) [6, 7]: 0.19% | Total Impurities (Related Substance) [6, 7]: 0.32% | Trait [6, 7]: colorless clear liquid | Content [6, 8]: 97.51% | Largest Single Impurity (Related Substance) [6, 8]: 0.27% | Total Impurities (Related Substance) [6, 8]: 0.58% | Trait [6, 8]: colorless transparent | Content [6, 9]: 94.51% | Largest Single Impurity (Related Substance) [6, 9]: 0.32% | Total Impurities (Related Substance) [6, 9]: 0.68% | Trait [6, 9]: colorless transparent | Content [6, 10]: 85.57% | Largest Single Impurity (Related Substance) [6, 10]: 0.72% | Total Impurities (Related Substance) [6, 10]: 2.01% | Trait [6, 10]: colorless transparent | Content [6, 11]: 76.55% | Largest Single Impurity (Related Substance) [6, 11]: 0.96% | Total Impurities (Related Substance) [6, 11]: 3.02% | Trait [6, 11]: colorless transparent | Content [6, 12]: 100.12% | Largest Single Impurity (Related Substance) [6, 12]: 0.16% | Total Impurities (Related Substance) [6, 12]: 0.30% | Trait [6, 12]: colorless | Content [6, 13]: 99.87% | Largest Single Impurity (Related Substance) [6, 13]: 0.19% | Total Impurities (Related Substance) [6, 13]: 0.32% | Trait [6, 13]: colorless clear liquid | Content [6, 14]: 98.51% | Largest Single Impurity (Related Substance) [6, 14]: 0.25% | Total Impurities (Related Substance) [6, 14]: 0.53% | Trait [6, 14]: colorless transparent | Content [6, 15]: 98.42% | Largest Single Impurity (Related Substance) [6, 15]: 0.26% | Total Impurities (Related Substance) [6, 15]: 0.55% | Trait [6, 15]: colorless | Content [6, 16]: 88.57% | Largest Single Impurity (Related Substance) [6, 16]: 0.68% | Total Impurities (Related Substance) [6, 16]: 1.96% | Trait [6, 16]: colorless transparent | Content [6, 17]: 87.67% | Largest Single Impurity (Related Substance) [6, 17]: 0.85% | Total Impurities (Related Substance) [6, 17]: 1.99% | Trait [6, 17]: colorless | Content [6, 18]: 78.88% | Largest Single Impurity (Related Substance) [6, 18]: 0.98% | Total Impurities (Related Substance) [6, 18]: 3.16% | Trait [6, 18]: colorless transparent
